Measurements taken from PMC4356359, “The structure of bradyzoite-specific enolase from Toxoplasma gondii reveals insights into its dual cytoplasmic and nuclear functions”.

T1: TgENO1 (bradyzoite enolase 1) (Toxoplasma gondii, UniProt B9PH47 1-444)
T1 sequence: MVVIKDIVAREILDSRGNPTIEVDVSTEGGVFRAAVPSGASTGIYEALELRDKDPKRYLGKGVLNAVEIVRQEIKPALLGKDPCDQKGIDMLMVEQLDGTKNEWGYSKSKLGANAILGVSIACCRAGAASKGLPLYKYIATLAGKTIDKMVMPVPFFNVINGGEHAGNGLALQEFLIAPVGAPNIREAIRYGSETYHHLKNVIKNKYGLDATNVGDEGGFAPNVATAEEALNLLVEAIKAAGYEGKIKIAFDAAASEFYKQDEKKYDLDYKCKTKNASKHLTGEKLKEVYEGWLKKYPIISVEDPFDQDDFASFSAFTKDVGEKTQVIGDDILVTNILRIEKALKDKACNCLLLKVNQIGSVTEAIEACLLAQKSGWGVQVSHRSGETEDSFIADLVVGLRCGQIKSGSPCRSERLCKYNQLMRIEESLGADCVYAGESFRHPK

B1: TgMAG1 probe (TTTTCT motif) (dsDNA)
DNA 1: TTTTCTTCTCAAGA
DNA 2: TCTTGAGAAGAAAA
B2: probe B (c-Myc promoter TATA box) (dsDNA)
DNA 1: ATATAAAATCCGTA
DNA 2: TACGGATTTTATAT
B3: probe C (random negative control) (dsDNA)
DNA 1: TTCTCCTGTGTCAT
DNA 2: ATGACACAGGAGAA

target: T1, TgENO1 (bradyzoite enolase 1); experiment: EMSA; EMSA with Thermo Scientific band-shift kit per manufacturer; buffer, salt, pH and temperature not stated (protein stock 10 mM Tris-HCl pH 8.3, 500 mM NaCl, 5 mM beta-mercaptoethanol); conditions: protein: recombinant; tags: N-terminal His-TEV (pCCK-N'-HisTEV vector)

Question: Does B1 bind?
Answer: Result: binds

Question: Does B2 bind?
Answer: Result: no binding

Question: Does B3 bind?
Answer: Result: no binding
